Measurements from patent US20220112258A1 (I MAB BIOPHARMA US, published 2022).

T1: IL7R of human primary CD4+ T cells (human, UniProt P16871 21-459)
T1 construct: whole, on cells; also called IL-7 receptor; IL7Rα (CD127) on CD4+ T cells
T1 sequence (looked up): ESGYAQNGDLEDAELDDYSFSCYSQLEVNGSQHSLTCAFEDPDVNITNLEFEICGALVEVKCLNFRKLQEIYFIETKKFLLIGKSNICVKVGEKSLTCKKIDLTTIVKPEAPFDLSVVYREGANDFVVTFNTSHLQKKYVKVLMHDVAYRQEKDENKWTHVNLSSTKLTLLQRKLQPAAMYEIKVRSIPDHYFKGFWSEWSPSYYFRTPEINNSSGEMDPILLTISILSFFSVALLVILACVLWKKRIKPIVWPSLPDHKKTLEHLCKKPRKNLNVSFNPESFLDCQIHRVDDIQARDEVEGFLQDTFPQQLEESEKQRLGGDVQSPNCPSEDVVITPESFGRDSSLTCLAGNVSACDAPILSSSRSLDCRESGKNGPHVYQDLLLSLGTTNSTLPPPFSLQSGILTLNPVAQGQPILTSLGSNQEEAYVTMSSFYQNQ


Experiments:
[1] = target: T2, recombinant human his-tagged PD-L1 protein (human, UniProt Q9NZQ7 19-238); experiment: SPR (Biacore T200), ligand captured on protein A chip, hPDL1-his as analyte
T2 construct: also called hPDL1-his; his-tagged human PD-L1; not shown: his tag
T2 sequence (Q9NZQ7 19-238 limits assumed): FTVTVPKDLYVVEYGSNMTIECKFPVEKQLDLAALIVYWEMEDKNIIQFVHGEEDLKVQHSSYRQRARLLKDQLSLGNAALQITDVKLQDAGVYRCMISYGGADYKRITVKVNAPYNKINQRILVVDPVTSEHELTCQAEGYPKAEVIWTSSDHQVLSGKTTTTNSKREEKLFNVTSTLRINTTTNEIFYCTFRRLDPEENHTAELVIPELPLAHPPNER
Method: A series of dilutions of human PD-L1 protein were injected over captured antibody at a flow rate of 10 μL/min. […] All the experiments were carried out on a Biacore T200. Data analysis was carried out using Biacore T200 evaluation software.

[2] = target: T1, IL7R of human primary CD4+ T cells; experiment: flow cytometry on human primary CD4+ T cells, 4 °C 30 min, PE anti-human Fc
Method: Briefly, for IL7R binding assay, human primary CD4⁺ T cells were incubated with various anti-PDL1-IL7 fusion molecules at 4° C. for 30 mins. […] For ligation-mediated receptor internalization assay, human primary CD4⁺ T cells were cocultured with fusion molecules at 37° C. for 15 mins to induce internalization. PE-cy7-conjugated-anti-CD127 (IL7Rα) antibody was used to detect the surface IL7Rα by FACS.

[3] = target: T2, recombinant human his-tagged PD-L1 …; experiment: ELISA, his-tagged PDL1 coated, OD450
Source text: Briefly, for ELISA-based binding, his-tagged PDL1 was used as coating protein.

[4] = target: T3, PD-L1 expressed on cells (Raji-PD-L1; tumor cell lines RKO, HCC1954, HCC827) (human, UniProt Q9NZQ7 19-290); experiment: flow cytometry on HCC1954 breast cancer cells, MFI
T3 construct: whole, on cells; also called cell-surface expressed PD-L1; cell surface PD-L1
T3 sequence (Q9NZQ7 19-290): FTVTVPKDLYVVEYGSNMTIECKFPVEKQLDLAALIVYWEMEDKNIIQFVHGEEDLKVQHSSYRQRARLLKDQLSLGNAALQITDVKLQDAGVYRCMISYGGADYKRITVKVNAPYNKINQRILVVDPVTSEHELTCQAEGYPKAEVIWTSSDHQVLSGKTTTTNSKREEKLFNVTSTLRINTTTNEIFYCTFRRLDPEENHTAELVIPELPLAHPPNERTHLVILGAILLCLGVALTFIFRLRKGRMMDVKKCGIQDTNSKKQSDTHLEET

[5] = target: T3, PD-L1 expressed on cells (Raji-PD-L1; …); experiment: flow cytometry on HCC827 lung cancer cells, MFI
[6] = target: T3, PD-L1 expressed on cells (Raji-PD-L1; …); experiment: flow cytometry on RKO colon carcinoma cells, MFI
[7] = target: T3, PD-L1 expressed on cells (Raji-PD-L1; …); experiment: flow cytometry on Raji-PD-L1 cells, PE anti-human IgG Fc, MFI
Method: After washing by FACS staining buffer, the PE-conjugated anti-human IgG Fc specific antibody was added to each well and incubated on ice for 30 mins. The MFI of PE were evaluated by FACS Celesta.

Row | Kd [1] | koff [1] | kon [1] | binding result [2] | EC50 [3] | EC50 [4] | EC50 [5] | EC50 [6] | EC50 [7] | Binder
1 | 2030 pM | 0.000164 s⁻¹ | 80700 M⁻¹ s⁻¹ | no binding (tested: 100 nM) | 110 pM |  |  |  |  | α-PDL1(anti-PD-L1 v3) monoclonal antibody (antibody, V domains shown, also called parental anti-PD-L1 antibody (v3)) VH: EVQLVESGGGLVQPGGSLRLSCAASGFTFSSYDMSWVRQAPGKSLEWVATISDAGGYIYYSDSVKGRFTISRDNAKNSLYLQMNSLRDEDTAVYICAREFGKRYALDYWGQGTTVTVSS VL: DIQMTQSPSSLSASVGDRVTITCKASQDVTPAVAWYQQKPGKAPKLLIYSTSSRYTGVPSRFSGSGSGTDFTFTISSLQPEDIATYYCQQHYTTPLTFGQGTKLEIK
2 | 948 pM | 0.000795 s⁻¹ | 838000 M⁻¹ s⁻¹ |  | 460 pM | 280 pM | 170 pM | 190 pM | 110 pM | α-PDL1(anti-PD-L1 v4) monoclonal antibody (antibody, V domains shown, also called parental anti-PD-L1 (V4) antibody) VH: QVQLLESGGGLVQPGGSLRLSCAASGFTFSSYWMSWVRQAPGKGLEWVANIKQDGSEKYYVDSVKGRFTISRDNAKNSLYLQMNSLRAEDTAVYYCARVALWDDAFDIWGQGTMVTVSS VL: DIQMTQSPSTLSASVGDRVIITCRASRGISSWLAWYQQKPGKAPNLLISKASSLESGVPSRFSGSGSGTDFTLTISSLQPEDFATYYCQQSSSIPLTFGGGTKVEIK
